T1: Activin A (homodimer of two inhibin βA subunits; R&D Systems, #338-AC) (human, UniProt P08476 311-426)
T1 construct: Bought protein; also called inhibin-βA dimer
T1 sequence: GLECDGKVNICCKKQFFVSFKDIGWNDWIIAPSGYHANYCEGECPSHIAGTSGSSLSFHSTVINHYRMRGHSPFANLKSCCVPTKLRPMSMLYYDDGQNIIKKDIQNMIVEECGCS

T2: BMP9 (human, UniProt Q9UK05 320-429)
T2 sequence (looked up): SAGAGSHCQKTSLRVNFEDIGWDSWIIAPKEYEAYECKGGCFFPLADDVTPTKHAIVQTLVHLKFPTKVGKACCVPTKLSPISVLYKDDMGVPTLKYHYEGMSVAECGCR

T3: BMP10 (human, UniProt O95393 317-424)
T3 sequence (looked up): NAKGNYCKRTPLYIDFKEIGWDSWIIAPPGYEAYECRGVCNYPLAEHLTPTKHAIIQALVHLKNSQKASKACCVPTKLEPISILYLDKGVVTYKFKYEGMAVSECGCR


How the values were obtained:
[1] = target: T1, Activin A (homodimer of two inhibin βA …); assay: SPR blocking: 5 nM Activin A + 15 nM binder over Follistatin-288 surface
Description: (§1) The binding signal (RU) was measured at 150 seconds after the start of the injection, and this signal was subtracted by the measured RU value for a negative control reference surface to determine the specific binding signal.

[2] = target: T1, Activin A (homodimer of two inhibin βA …); assay: SPR blocking: 5 nM Activin A + 0.00 nM binder over hActRIIB-hFc (Control 4) surface
Description: as §1

[3] = target: T1, Activin A (homodimer of two inhibin βA …); assay: SPR blocking: 5 nM Activin A + 60 nM binder over hActRIIB-hFc (Control 4) surface
Description: as §1

[4] = target: T1, Activin A (homodimer of two inhibin βA …); assay: SPR blocking: 5 nM Activin A + 0.94 nM binder over hActRIIA-hFc surface
Description: as §1

[5] = target: T1, Activin A (homodimer of two inhibin βA …); assay: SPR blocking: 5 nM Activin A + 7.50 nM binder over hActRIIA-hFc surface
Description: as §1

[6] = target: T1, Activin A (homodimer of two inhibin βA …); assay: SPR blocking: 5 nM Activin A + 15 nM binder over hActRIIB-hFc (Control 4) surface
[7] = target: T1, Activin A (homodimer of two inhibin βA …); assay: SPR blocking: 5 nM Activin A + 3.75 nM binder over Follistatin-288 surface
Description: as §1

[8] = target: T2, BMP9; assay: cell-based or functional assay
[9] = target: T3, BMP10; assay: cell-based or functional assay
[10] = target: T1, Activin A (homodimer of two inhibin βA …); assay: SPR blocking: 5 nM Activin A + 0 nM binder over Follistatin-288 surface
Description: as §1

[11] = target: T1, Activin A (homodimer of two inhibin βA …); assay: SPR blocking: 5 nM Activin A + 0.00 nM binder over hActRIIA-hFc surface
Description: as §1

[12] = target: T1, Activin A (homodimer of two inhibin βA …); assay: SPR blocking: 5 nM Activin A + 0.94 nM binder over hActRIIB-hFc (Control 4) surface
[13] = target: T1, Activin A (homodimer of two inhibin βA …); assay: SPR blocking: 5 nM Activin A + 1.88 nM binder over Follistatin-288 surface
Description: as §1

[14] = target: T1, Activin A (homodimer of two inhibin βA …); assay: SPR blocking: 5 nM Activin A + 60 nM binder over hActRIIA-hFc surface
Description: as §1

[15] = target: T1, Activin A (homodimer of two inhibin βA …); assay: SPR blocking: 5 nM Activin A + 3.75 nM binder over hActRIIA-hFc surface
Description: as §1

[16] = target: T1, Activin A (homodimer of two inhibin βA …); assay: SPR blocking: 5 nM Activin A + 7.50 nM binder over hActRIIB-hFc (Control 4) surface
[17] = target: T1, Activin A (homodimer of two inhibin βA …); assay: SPR blocking: 5 nM Activin A + 0.94 nM binder over Follistatin-288 surface
Description: as §1

[18] = target: T1, Activin A (homodimer of two inhibin βA …); assay: SPR blocking: 5 nM Activin A + 7.5 nM binder over Follistatin-288 surface
Description: as §1

[19] = target: T1, Activin A (homodimer of two inhibin βA …); assay: SPR blocking: 5 nM Activin A + 60 nM binder over Follistatin-288 surface
Description: as §1

[20] = target: T1, Activin A (homodimer of two inhibin βA …); assay: SPR blocking: 5 nM Activin A + 30 nM binder over hActRIIA-hFc surface
Description: as §1

[21] = target: T1, Activin A (homodimer of two inhibin βA …); assay: SPR blocking: 5 nM Activin A + 30 nM binder over Follistatin-288 surface
Description: as §1

[22] = target: T1, Activin A (homodimer of two inhibin βA …); assay: SPR blocking: 5 nM Activin A + 3.75 nM binder over hActRIIB-hFc (Control 4) surface
Description: as §1

[23] = target: T1, Activin A (homodimer of two inhibin βA …); assay: SPR blocking: 5 nM Activin A + 15 nM binder over hActRIIA-hFc surface
Description: as §1

[24] = target: T1, Activin A (homodimer of two inhibin βA …); assay: SPR blocking: 5 nM Activin A + 1.88 nM binder over hActRIIA-hFc surface
Description: as §1

[25] = target: T1, Activin A (homodimer of two inhibin βA …); assay: SPR blocking: 5 nM Activin A + 30 nM binder over hActRIIB-hFc (Control 4) surface
Description: as §1

[26] = target: T1, Activin A (homodimer of two inhibin βA …); assay: SPR blocking: 5 nM Activin A + 1.88 nM binder over hActRIIB-hFc (Control 4) surface
Description: as §1

| % bound RU w/no inhibitor [1] [%] | % bound RU w/no inhibitor [2] [%] | % bound RU w/no inhibitor [3] [%] | % bound RU w/no inhibitor [4] [%] | % bound RU w/no inhibitor [5] [%] | % bound RU w/no inhibitor [6] [%] | % bound RU w/no inhibitor [7] [%] | IC50 [M]; inhibition of 4 nM BMP10 in W-20-17/BRE-luc cells [9] [M] | % bound RU w/no inhibitor [10] [%] | % bound RU w/no inhibitor [11] [%] | % bound RU w/no inhibitor [12] [%] | % bound RU w/no inhibitor [13] [%] | % bound RU w/no inhibitor [14] [%] | % bound RU w/no inhibitor [15] [%] | % bound RU w/no inhibitor [16] [%] | % bound RU w/no inhibitor [17] [%] | % bound RU w/no inhibitor [18] [%] | % bound RU w/no inhibitor [19] [%] | % bound RU w/no inhibitor [20] [%] | % bound RU w/no inhibitor [21] [%] | Binder | further results |
| --- | --- | --- | --- | --- | --- | --- | --- | --- | --- | --- | --- | --- | --- | --- | --- | --- | --- | --- | --- | --- | --- |
| 1 | 100 | 3 | 87 | 1 | 2 | 20 | 3.5e-09 | 100 | 100 | 87 | 80 | 1 | 19 | 2 | 97 | 1 | 3 | 1 | 2 | H4H10429P (antibody, human IgG4, V domains shown, H4H prefix means human IgG4 Fc) VH: QVQLVESGGGVVQPGRSLRLSCVASGFTVSSYGIHWVRQAPGKGLEWVSVIWYDGRNKDYADSVKGRFTISRDNSKNTVYLEMKGLRAEDTALYYCARDKTGDFDSWGQGTLVTVSS VL: DIQMTQSPSSLSASVGDRVTITCRASQNINSFLSWYQQKPGKAPKFLIYDASSIQSGAPSRFSGSGSGTDFTLTISSLQPEDFATYYCQQSYSSPFTFGQGTKLEIK | IC50 [M]; inhibition of 800 pM BMP9 in W-20-17/BRE-luc cells [8]: 8.1e-09 M; % bound RU w/no inhibitor [22]: 19%; % bound RU w/no inhibitor [23]: 1%; % bound RU w/no inhibitor [24]: 66%; % bound RU w/no inhibitor [25]: 2%; % bound RU w/no inhibitor [26]: 67% |
| 1 | 100 | 4 | 75 | 2 | 2 | 16 | > 1e-07 | 100 | 100 | 80 | 61 | 2 | 16 | 3 | 78 | 1 | 2 | 2 | 2 | H4H10436P2 (antibody, human IgG4, V domains shown, H4H prefix means human IgG4 Fc) VH: QVQLVESGGGVVQPGRSLRLTCVASGFTVSSYGMHWVRQAPGKGLEWVAVMFYDESKKYYADSVKGRFTISRDNSKNTLYLQMNSLRVEDTAVYYCARDEQLDFEYWGQGTLVTVSS VL: not shown | % bound RU w/no inhibitor [22]: 19%; % bound RU w/no inhibitor [23]: 2%; % bound RU w/no inhibitor [24]: 55%; % bound RU w/no inhibitor [25]: 3%; % bound RU w/no inhibitor [26]: 60% |

Source: patent publication US20150037339A1 (Regeneron, published 2015)
